Our source for the IFN-γ ELISpot and lowest concentration of peptide giving positive ELISpot response values is patent US20120294879A1, “CONSENSUS SEQUENCE FOR INFLUENZA A VIRUS” (priority 2009, published 2012).

For the first assay, the target named is HLA-DR3 (HLA-DRA*0101 and -DRB1*0301), as expressed in HLA-DR3 transgenic mice (human). The experiment in a line: cell-based or functional assay.
In turn, “PB1 120-136 peptide of influenza virus A/New York/348/2003 (H1N1)” showed an IFN-γ ELISpot at 10 µg/ml peptide, splenocytes of immunized HLA transgenic mice of 142 and a lowest concentration of peptide giving positive ELISpot response of 0.1 µg/mL.

Turning to “PB1 340-356 peptide of influenza virus A/New York/348/2003 (H1N1)”, the IFN-γ ELISpot at 10 µg/ml peptide, splenocytes of immunized HLA transgenic mice came to 175 and the lowest concentration of peptide giving positive ELISpot response amounted to 0.1 µg/mL.

“NP 103-119 peptide of influenza virus A/New York/348/2003 (H1N1)”: the IFN-γ ELISpot at 10 µg/ml peptide, splenocytes of immunized HLA transgenic mice amounted to 614 and the lowest concentration of peptide giving positive ELISpot response worked out at 0.1 µg/mL.

Substance “PB2 54-70 peptide of influenza virus A/New York/348/2003 (H1N1)” had an IFN-γ ELISpot at 10 µg/ml peptide, splenocytes of immunized HLA transgenic mice of 499 and a lowest concentration of peptide giving positive ELISpot response of 0.1 µg/mL.

Substance “NP 408-424 peptide of influenza virus A/New York/348/2003 (H1N1)” displayed an IFN-γ ELISpot at 10 µg/ml peptide, splenocytes of immunized HLA transgenic mice of 41 and a lowest concentration of peptide giving positive ELISpot response of 10 µg/mL.

For another assay, the target named is HLA-DR4 (HLA-DRA*0101 and -DRB1*0401), as expressed in HLA-DR4 transgenic mice (human). The experiment in a line: cell-based or functional assay.
In turn, “PA 558-574 peptide of influenza virus A/New York/348/2003 (H1N1)” returned an IFN-γ ELISpot at 10 µg/ml peptide, splenocytes of immunized HLA transgenic mice of 114 and a lowest concentration of peptide giving positive ELISpot response of 0.1 µg/mL.

Consider “M1 175-191 peptide of influenza virus A/New York/348/2003 (H1N1)”, for which the IFN-γ ELISpot at 10 µg/ml peptide, splenocytes of immunized HLA transgenic mice is 165 and the lowest concentration of peptide giving positive ELISpot response was found to be 0.1 µg/mL.

“PB2 48-64 peptide of influenza virus A/New York/348/2003 (H1N1)” gave an IFN-γ ELISpot at 10 µg/ml peptide, splenocytes of immunized HLA transgenic mice of 161 and a lowest concentration of peptide giving positive ELISpot response of 0.1 µg/mL.

As for “PB2 126-142 peptide of influenza virus A/New York/348/2003 (H1N1)”, the IFN-γ ELISpot at 10 µg/ml peptide, splenocytes of immunized HLA transgenic mice was 316 and the lowest concentration of peptide giving positive ELISpot response stood at 0.1 µg/mL.

The substance “M1 181-197 peptide of influenza virus A/New York/348/2003 (H1N1)” had an IFN-γ ELISpot at 10 µg/ml peptide, splenocytes of immunized HLA transgenic mice of 115 and a lowest concentration of peptide giving positive ELISpot response of 1 µg/mL.

Take “PB2 369-385 peptide of influenza virus A/New York/348/2003 (H1N1)”: the IFN-γ ELISpot at 10 µg/ml peptide, splenocytes of immunized HLA transgenic mice was determined as 54 and the lowest concentration of peptide giving positive ELISpot response turned out to be 0.1 µg/mL.

Substance “PB2 458-474 peptide of influenza virus A/New York/348/2003 (H1N1)” displayed an IFN-γ ELISpot at 10 µg/ml peptide, splenocytes of immunized HLA transgenic mice of 238 and a lowest concentration of peptide giving positive ELISpot response of 0.1 µg/mL.

Regarding “PB2 42-58 peptide of influenza virus A/New York/348/2003 (H1N1)”, the IFN-γ ELISpot at 10 µg/ml peptide, splenocytes of immunized HLA transgenic mice is 166 and the lowest concentration of peptide giving positive ELISpot response was found to be 0.1 µg/mL.

Regarding “PA 132-148 peptide of influenza virus A/New York/348/2003 (H1N1)”, the IFN-γ ELISpot at 10 µg/ml peptide, splenocytes of immunized HLA transgenic mice was 41 and the lowest concentration of peptide giving positive ELISpot response stood at 0.1 µg/mL.

With “PB1 31-47 peptide of influenza virus A/New York/348/2003 (H1N1)”, the IFN-γ ELISpot at 10 µg/ml peptide, splenocytes of immunized HLA transgenic mice came to 106 and the lowest concentration of peptide giving positive ELISpot response came out at 0.1 µg/mL.

In the case of “PB1 507-523 peptide of influenza virus A/New York/348/2003 (H1N1)”, the IFN-γ ELISpot at 10 µg/ml peptide, splenocytes of immunized HLA transgenic mice was found to be 274 and the lowest concentration of peptide giving positive ELISpot response was 0.1 µg/mL.

“PB1 656-672 peptide of influenza virus A/New York/348/2003 (H1N1)” came in with an IFN-γ ELISpot at 10 µg/ml peptide, splenocytes of immunized HLA transgenic mice of 59 and a lowest concentration of peptide giving positive ELISpot response of 0.1 µg/mL.

In turn, “PB2 132-148 peptide of influenza virus A/New York/348/2003 (H1N1)” registered an IFN-γ ELISpot at 10 µg/ml peptide, splenocytes of immunized HLA transgenic mice of 311 and a lowest concentration of peptide giving positive ELISpot response of 0.1 µg/mL.
